# Reference: patent publication EP0927045B1 (The Burnham Institute, dated 1998)
# Where no end group is shown, it is not given here.
# Target: αvβ3 integrin expressed on blood vessels forming in the tumor
# Test: cell-based or functional assay
binder,measurement,value
"CDCRGDCFC (not fully specified (bridges); cysteine pairing not given here; also: peptide displayed on filamentous phage (fuse5), up to five copies) [phage expressing the RGD-containing peptide CDCRGDCFC (SEQ ID NO: 1)]","phage concentrated in the breast tumor after iv injection (in vivo homing), RGD phage against unselected phage",80 fold
